Tests used:
Assay in all cases: FACS, mAb 5 µg/ml, CD20 variant on transfected HEK293 cells
[1] = target: S177A
[2] = target: N171A
[3] = target: A170P
[4] = target: N171H
[5] = target: WT
[6] = target: P172A
[7] = target: K175F
[8] = target: S173A
[9] = target: K175R
[10] = target: E168A
[11] = target: N176A
[12] = target: A170S
[13] = target: E174Y
[14] = target: E174D
Sequence of E174D (CD20, as listed by the source E174D E174D limits assumed): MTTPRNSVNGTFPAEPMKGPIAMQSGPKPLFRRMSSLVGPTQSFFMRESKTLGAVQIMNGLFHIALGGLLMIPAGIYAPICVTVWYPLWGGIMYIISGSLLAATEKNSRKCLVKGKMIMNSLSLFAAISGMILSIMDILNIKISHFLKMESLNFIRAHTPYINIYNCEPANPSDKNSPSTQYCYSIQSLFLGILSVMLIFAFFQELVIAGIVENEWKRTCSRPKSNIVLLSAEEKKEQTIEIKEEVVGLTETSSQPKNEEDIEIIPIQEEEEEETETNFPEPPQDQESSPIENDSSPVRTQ

Sequence of N171H (CD20, as listed by the source N171H N171H limits assumed): as the sequence (CD20, as listed by the source E174D E174D limits assumed) above, with N171H, D174E counted along it
Sequence of A170S (CD20, as listed by the source A170S A170S limits assumed): as the sequence (CD20, as listed by the source E174D E174D limits assumed) above, with A170S, D174E counted along it
Sequence of P172A (CD20, as listed by the source P172A P172A limits assumed): as the sequence (CD20, as listed by the source E174D E174D limits assumed) above, with P172A, D174E counted along it
Sequence of E168A (CD20, as listed by the source E168A E168A limits assumed): as the sequence (CD20, as listed by the source E174D E174D limits assumed) above, with E168A, D174E counted along it
Sequence of K175F (CD20, as listed by the source K175F K175F limits assumed): as the sequence (CD20, as listed by the source E174D E174D limits assumed) above, with D174E, K175F counted along it
Sequence of A170P (CD20, as listed by the source A170P A170P limits assumed): as the sequence (CD20, as listed by the source E174D E174D limits assumed) above, with A170P, D174E counted along it
Sequence of S177A (CD20, as listed by the source S177A S177A limits assumed): as the sequence (CD20, as listed by the source E174D E174D limits assumed) above, with D174E, S177A counted along it
Sequence of N176A (CD20, as listed by the source N176A N176A limits assumed): as the sequence (CD20, as listed by the source E174D E174D limits assumed) above, with D174E, N176A counted along it
Sequence of N171A (CD20, as listed by the source N171A N171A limits assumed): as the sequence (CD20, as listed by the source E174D E174D limits assumed) above, with N171A, D174E counted along it
Sequence of WT (CD20, as listed by the source limits assumed): as the sequence (CD20, as listed by the source E174D E174D limits assumed) above, with D174E counted along it
Sequence of S173A (CD20, as listed by the source S173A S173A limits assumed): as the sequence (CD20, as listed by the source E174D E174D limits assumed) above, with S173A, D174E counted along it
Sequence of E174Y (CD20, as listed by the source E174Y E174Y limits assumed): as the sequence (CD20, as listed by the source E174D E174D limits assumed) above, with D174Y counted along it
Sequence of K175R (CD20, as listed by the source K175R K175R limits assumed): as the sequence (CD20, as listed by the source E174D E174D limits assumed) above, with D174E, K175R counted along it

Row | % of best binder [1] [%] | % of best binder [2] [%] | % of best binder [3] [%] | % of best binder [4] [%] | % of best binder [5] [%] | % of best binder [6] [%] | % of best binder [7] [%] | % of best binder [8] [%] | % of best binder [9] [%] | % of best binder [10] [%] | % of best binder [11] [%] | % of best binder [12] [%] | % of best binder [13] [%] | % of best binder [14] [%] | Substance
1 | 40 | 46 | 38 | 58 | 59 | 31 | 46 | 55 | 53 | 48 | 2 | 55 | 51 | 57 | B1 (antibody)
2 | 68 | 82 | 62 | 86 | 77 | 69 | 71 | 73 | 71 | 66 | 67 | 60 | 80 | 67 | m7D8 (antibody)
3 | 79 | 100 | 41 | 100 | 82 | 96 | 94 | 98 | 89 | 83 | 88 | 84 | 13 | 9 | m11B8 (antibody)
4 | 63 | 3 | 42 | 5 | 77 | 25 | 67 | 2 | 65 | 52 | 65 | 60 | 29 | 52 | mRTX (antibody)
